Measured values taken from patent US20260209320A1 (ALCHEMAB THERAPEUTICS, published 2026).
Substitutions are numbered along the chain they refer to.

T1: human lysozyme (human, UniProt P61626 19-148)
T1 sequence (looked up): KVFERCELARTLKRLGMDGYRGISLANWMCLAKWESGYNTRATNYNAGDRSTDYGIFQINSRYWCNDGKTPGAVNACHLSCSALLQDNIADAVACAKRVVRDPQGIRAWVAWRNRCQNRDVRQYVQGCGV

T2: Murine HTT antigen (murine)
T2 construct: antigen of the murine HTT direct ELISA; also called murine HTT protein
T2 chain: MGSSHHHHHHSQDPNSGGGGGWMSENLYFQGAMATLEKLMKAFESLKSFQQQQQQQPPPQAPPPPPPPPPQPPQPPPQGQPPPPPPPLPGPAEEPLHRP

B1: ATL_0005895 (antibody, V domains shown)
VH: EVQLVESGGGLVKPGGSLRLSCAASGFTFNKAWMSWVRQAPGKGLEWVGRIKSGIDAGTTDYAAPVKGRFTISRDDSKNTLYLQMNSLKTEDTAVYYCIPPPYYYYYGLDVWGQGTTVTVSS
VL: QSALTQPRSVSGSPGQSVTISCTGTSSDVGSYNLVSWYQQHPGKAPKLMIYEVNKRPSGVPDRFSGSKSGATASLTISGLQAEDEADYYCGSYAGTANVFGTGTKVTVL
notes: human IgG1; also called ATL_5895; ATL5895
B2: ATL_0005567 (antibody, V domains shown)
VH: B1 VH with S35N, A57G, K67Q, L81V, K89N
VL: QSALTQPASVSGSPGQSITISCTGTSSDIGSYNLVSWYQQHPGNAPKPLIYEGSKRPSGVSARFSGSKSGNTASLTISGLQPEDEADYYCSSYAGFSTLVFGGGTKVTVL
notes: human IgG1; also called ATL_5567; ATL5567
B3: ATL_0005901 (antibody, V domains shown)
VH: B1 VH with N79A
VL: QSALTQPASVSGSPGQSITISCTGTSSDVGGYKLVSWYQQHPGRAPKLMIYEVSKRPSGVSSRFSGSKSGSTASLTISGLQAEDEADYYCSSYAGSSVVFGGGTKLTVL
notes: human IgG1; also called ATL_5901; ATL5901
B4: ATL_0005059/NI-302.8F1 (antibody, V domains shown)
VH: EVQLVESGGGLVKPGGSLTISCAASGFTFSNAWMNWVRQAPGKGLEWVGHIRTQAEGGTSDYAAPVKGRFTISRDDSKNTLYLQMNSLKTEDTAVYYCIPPPYYYYYGLDVWGQGTTVTVSS
VL: QSALTQPASVSGSPGQSITISCTGASSDVGTYDLVSWYQQHPGKAPKLIIYEVNKRPSGVSYRFSASKSANTASLTISGLQAEDEAEYYCCSYAGYSTVFGGGTKLTVL
notes: also called ATL_5059; CA_0000274

Legend:
[1] = molecular target: T3, CACNA1A (human, UniProt O00555 1-2506); assay: Retrogenix cell microarray, HEK293 cells
T3 construct: whole, on cells; also called Another poly Q protein
T3 sequence (O00555 whole entry): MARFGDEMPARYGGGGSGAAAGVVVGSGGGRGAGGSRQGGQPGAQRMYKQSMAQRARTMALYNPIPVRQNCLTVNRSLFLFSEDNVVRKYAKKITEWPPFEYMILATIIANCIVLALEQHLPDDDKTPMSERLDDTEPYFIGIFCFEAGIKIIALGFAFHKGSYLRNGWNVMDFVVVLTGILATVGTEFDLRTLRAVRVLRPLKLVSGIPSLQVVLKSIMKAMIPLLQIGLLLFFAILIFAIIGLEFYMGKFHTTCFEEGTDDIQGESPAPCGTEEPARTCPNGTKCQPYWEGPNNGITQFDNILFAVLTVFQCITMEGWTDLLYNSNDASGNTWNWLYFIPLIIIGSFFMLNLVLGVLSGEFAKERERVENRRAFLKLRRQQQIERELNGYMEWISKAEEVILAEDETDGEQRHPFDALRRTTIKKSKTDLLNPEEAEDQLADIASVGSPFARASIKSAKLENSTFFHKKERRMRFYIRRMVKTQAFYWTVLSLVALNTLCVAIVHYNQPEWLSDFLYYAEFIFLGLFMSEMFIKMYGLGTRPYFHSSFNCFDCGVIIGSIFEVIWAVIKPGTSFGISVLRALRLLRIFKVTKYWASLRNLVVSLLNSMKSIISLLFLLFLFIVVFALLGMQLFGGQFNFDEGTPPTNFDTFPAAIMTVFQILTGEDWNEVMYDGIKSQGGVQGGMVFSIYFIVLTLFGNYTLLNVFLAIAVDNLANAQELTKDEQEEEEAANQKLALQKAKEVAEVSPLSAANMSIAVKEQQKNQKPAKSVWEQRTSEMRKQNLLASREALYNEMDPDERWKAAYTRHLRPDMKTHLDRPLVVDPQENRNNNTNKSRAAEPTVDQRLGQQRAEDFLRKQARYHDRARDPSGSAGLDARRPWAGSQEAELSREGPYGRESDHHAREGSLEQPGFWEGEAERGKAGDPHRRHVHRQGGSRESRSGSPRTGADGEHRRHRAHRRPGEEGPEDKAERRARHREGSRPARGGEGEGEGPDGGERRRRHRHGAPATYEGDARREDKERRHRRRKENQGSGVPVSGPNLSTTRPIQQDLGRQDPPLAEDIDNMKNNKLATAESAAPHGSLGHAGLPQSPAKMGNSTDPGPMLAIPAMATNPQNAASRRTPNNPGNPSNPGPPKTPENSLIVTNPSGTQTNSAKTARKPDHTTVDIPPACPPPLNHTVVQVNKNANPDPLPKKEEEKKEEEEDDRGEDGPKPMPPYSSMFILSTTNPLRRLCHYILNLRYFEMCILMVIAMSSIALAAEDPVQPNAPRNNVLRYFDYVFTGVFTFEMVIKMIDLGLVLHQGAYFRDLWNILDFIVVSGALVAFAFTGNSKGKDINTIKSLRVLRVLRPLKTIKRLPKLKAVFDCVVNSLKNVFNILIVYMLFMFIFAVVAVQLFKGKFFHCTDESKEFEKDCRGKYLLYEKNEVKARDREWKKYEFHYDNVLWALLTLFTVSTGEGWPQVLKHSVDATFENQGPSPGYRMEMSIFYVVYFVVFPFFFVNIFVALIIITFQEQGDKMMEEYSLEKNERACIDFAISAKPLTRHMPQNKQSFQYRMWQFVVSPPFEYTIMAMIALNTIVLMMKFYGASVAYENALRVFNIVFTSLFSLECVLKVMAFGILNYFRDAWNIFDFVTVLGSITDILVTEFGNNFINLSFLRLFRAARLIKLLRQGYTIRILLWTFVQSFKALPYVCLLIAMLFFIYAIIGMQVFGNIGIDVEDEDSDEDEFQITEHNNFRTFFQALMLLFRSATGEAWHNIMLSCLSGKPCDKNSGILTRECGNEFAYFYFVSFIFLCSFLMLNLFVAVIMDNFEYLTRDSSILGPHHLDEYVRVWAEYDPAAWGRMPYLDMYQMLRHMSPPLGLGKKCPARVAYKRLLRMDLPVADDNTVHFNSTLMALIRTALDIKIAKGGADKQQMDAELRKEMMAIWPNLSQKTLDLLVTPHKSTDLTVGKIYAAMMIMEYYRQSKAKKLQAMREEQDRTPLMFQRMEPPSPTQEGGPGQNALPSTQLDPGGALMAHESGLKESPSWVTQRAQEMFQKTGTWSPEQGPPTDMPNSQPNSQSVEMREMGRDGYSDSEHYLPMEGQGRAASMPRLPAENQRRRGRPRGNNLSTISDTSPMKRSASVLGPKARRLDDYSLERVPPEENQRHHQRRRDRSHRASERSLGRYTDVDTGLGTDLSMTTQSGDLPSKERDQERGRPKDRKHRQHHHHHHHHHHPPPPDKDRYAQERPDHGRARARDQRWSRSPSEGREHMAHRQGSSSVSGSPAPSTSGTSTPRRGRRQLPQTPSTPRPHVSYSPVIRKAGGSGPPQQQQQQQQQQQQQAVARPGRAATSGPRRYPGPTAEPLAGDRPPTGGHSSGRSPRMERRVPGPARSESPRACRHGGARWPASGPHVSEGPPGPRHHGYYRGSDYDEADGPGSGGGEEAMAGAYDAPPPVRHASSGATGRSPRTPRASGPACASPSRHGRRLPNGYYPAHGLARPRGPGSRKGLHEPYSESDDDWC

[2] = molecular target: T1, human lysozyme; assay: direct ELISA
[3] = molecular target: T4, WT Human HTT Exon 1 25Q (GST) (human); assay: HTT sandwich ELISA, average of repeats
T4 construct: recombinant His- and GST-tagged fusion; also called Wild type Huntingtin (HTT) exon 1
T4 sequence (chain, as listed by the source limits assumed, change not shown): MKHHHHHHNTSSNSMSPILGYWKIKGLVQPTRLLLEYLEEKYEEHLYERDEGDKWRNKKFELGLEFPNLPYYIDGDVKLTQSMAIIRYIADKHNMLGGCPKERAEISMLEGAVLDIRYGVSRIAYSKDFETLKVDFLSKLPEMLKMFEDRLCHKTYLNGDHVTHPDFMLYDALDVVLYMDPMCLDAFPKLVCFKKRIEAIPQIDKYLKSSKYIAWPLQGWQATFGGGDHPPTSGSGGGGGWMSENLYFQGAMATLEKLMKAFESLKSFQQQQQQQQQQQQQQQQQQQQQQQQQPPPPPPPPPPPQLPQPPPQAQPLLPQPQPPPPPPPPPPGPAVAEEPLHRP

[4] = molecular target: T4, WT Human HTT Exon 1 25Q (GST); assay: HTT sandwich ELISA, biological repeat 1
[5] = molecular target: T5, Mutant Human HTT Exon 1 48Q (GST) (human); assay: HTT sandwich ELISA, biological repeat 3
T5 construct: recombinant His- and GST-tagged fusion; also called HTT Exon 1 Q48; 48Q HTT Exon-1
T5 sequence (chain, as listed by the source mutant limits assumed): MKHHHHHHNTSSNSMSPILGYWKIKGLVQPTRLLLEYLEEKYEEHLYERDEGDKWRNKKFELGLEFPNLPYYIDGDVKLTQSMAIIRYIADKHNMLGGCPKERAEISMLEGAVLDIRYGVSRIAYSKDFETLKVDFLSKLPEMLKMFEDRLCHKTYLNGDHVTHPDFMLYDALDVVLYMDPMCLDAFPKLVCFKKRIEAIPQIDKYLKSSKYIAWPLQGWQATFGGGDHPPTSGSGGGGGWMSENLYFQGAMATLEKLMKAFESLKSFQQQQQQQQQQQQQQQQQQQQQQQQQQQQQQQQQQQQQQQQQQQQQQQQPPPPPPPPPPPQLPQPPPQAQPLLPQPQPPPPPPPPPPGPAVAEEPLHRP

[6] = molecular target: T5, Mutant Human HTT Exon 1 48Q (GST); assay: HTT sandwich ELISA, biological repeat 2
[7] = molecular target: T5, Mutant Human HTT Exon 1 48Q (GST); assay: HTT sandwich ELISA; EC50 on HTT Exon 1 25Q over EC50 on HTT Exon 1 48Q
[8] = molecular target: T5, Mutant Human HTT Exon 1 48Q (GST); assay: HTT sandwich ELISA, biological repeat 1
[9] = molecular target: T4, WT Human HTT Exon 1 25Q (GST); assay: HTT sandwich ELISA, biological repeat 2
[10] = molecular target: T5, Mutant Human HTT Exon 1 48Q (GST); assay: HTT sandwich ELISA, average of repeats
[11] = molecular target: T4, WT Human HTT Exon 1 25Q (GST); assay: HTT sandwich ELISA, biological repeat 3
[12] = molecular target: T2, Murine HTT antigen; assay: direct ELISA on coated murine HTT antigen
[13] = molecular target: T4, WT Human HTT Exon 1 25Q (GST); assay: HTT sandwich ELISA, average (one repeat assessed)

Binder	binding result [1]	binding result [2]	EC50 [3]	EC50 [4]	EC50 [5]	EC50 [6]	Ratio of EC50 for 25Q:48Q HTT Exon 1 [7]	EC50 [8]	EC50 [9]	EC50 [10]	EC50 [11]	binding result [12]	EC50 [13]
B1	no binding (tested: 2 µg/mL antibody)	no binding (tested: less than 1 µM)	3.71 nM	2.97 nM	3.2 nM	3.83 nM	1.79	0.731 nM	3.91 nM	2.08 nM	4.39 nM	binds	
B2	no binding (tested: 5 µg/mL antibody)		7.57 nM		4.59 nM	6.55 nM	1.18	8.7 nM	9.63 nM	6.39 nM	5.95 nM		
B3			4.92 nM	5.59 nM	4.59 nM		2.05	1.25 nM	4.52 nM	2.4 nM	4.73 nM		
B4					17.5 nM	16.2 nM	1.12	18.1 nM	19.3 nM	17.3 nM			19.3 nM
